Assay type in all cases: biochemical
For series [1], the target named is T1, Corynebacterium glutamicum Cg10062 variant E114N, SEQ ID NO: 62 (Corynebacterium glutamicum, UniProt Q8NU77, E115N).
T1 sequence (Q8NU77 with tags, fused parts or gaps E115N): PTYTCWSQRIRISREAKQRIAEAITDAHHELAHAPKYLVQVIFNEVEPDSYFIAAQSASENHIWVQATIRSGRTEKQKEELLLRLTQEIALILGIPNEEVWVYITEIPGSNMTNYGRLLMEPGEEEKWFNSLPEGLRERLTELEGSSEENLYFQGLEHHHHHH
As to the kind of experiment: Effect of NADP(H) on ACA hydration during in vitro 3-HP synthesis with cofactor recycling. Conditions: 100 mM ACA conversion to 3-HP with 0.001-1 eq NADP^+, 25 °C, pH 8.0. From the text: This in vitro pathway developed in this study utilizes the novel Cg10062 (E114N) hydratase-only mutant with two other enzymes, YdfG and PTDH (FIG. 1). YdfG is a NADP^+-dependent 3-hydroxy acid dehydrogenase from E. coli and has previously been used for the in vivo production of 3-HP via the β-alanine pathway. […] For our system to be applied practically, the cost of cofactor is an important consideration. NADPH is an expensive cofactor and in order for the pathway to be an efficient, cost-effective pathway, the use of sub-stoichiometric amounts of co-factor was carried out. […] The formation of 3-HP in these assays were also confirmed using ^1H NMR (FIG. 4A-C).
All stocks solutions were prepared in 100 mM sodium phosphate pH 8.0. Ethylene glycol (20% w/v) was added to all enzyme stock solutions. […] Each reaction was carried out in duplicate at 25° C. with constant slow mixing on a rocking platform. Reactions were initiated by the addition of ACA. Samples from each reaction were quenched at indicated timepoints for analysis by HPLC and ^1H NMR, as described below.
All samples (100 μL) were quenched and by addition of 5 μL of 18 M sulfuric acid. The final volume was adjusted to 500 μL using 0.01 N sulfuric acid. The samples were prepared for HPLC using Whatman Mini-UniPrep® G2 syringeless filters with a glass microfiber membrane.

A short description of the next series: pH dependence of MmsB. Conditions: in potassium phosphate; 25° C. How it is done:
The pH dependence of MmsB was measured using four different buffer systems: 100 mM potassium phosphate, 50 mM Tris-HCl, 50 mM bis-tris propane and 50 mM HEPES buffers for pH 6.5-8.0, 7.0-9.0, 7.0-9.0 and 7.0-8.0, respectively. The pH dependence was studied using the respective enzyme assay used for kinetic characterization as described previously. All pH studies were carried out in triplicate (1 mL) on a Shimadzu UV2600 spectrophotometer at 25° C. and checked to ensure that the final pH of each assay remained unchanged with the addition of assay components. All stock solutions were prepared in water and the assays were carried out in the respective buffers for each pH.

Series [2] in a line: 1H NMR characterization of YdfG-catalyzed reduction of MSA. The following applies: provided with NADPH as a cofactor. How it is done: The volume was adjusted to 680 μL with 100 mM sodium phosphate pH 8.0. The reaction was initiated with the addition of Cg10062 (E114D) (20 μL of 3 mg mL^−1 stock). ^1H NMR spectra were obtained after incubating the samples at 25° C. for 1 h. […] Resonances at δ 2.23; (t, 2H) and δ 3.58; (t, 2H) correspond to 3-hydroxypropionate.

With NADP(H), the “inhibitory effect on Cg10062 (E114N)” value in series [1] is reported as “inhibitory effect”.

B1: MmsB: 3-hydroxyisobutyrate dehydrogenase from P. putida KT2440, SEQ ID NO: 76 (protein)
chain: MRIAFIGLGNMGAPMARNLIKAGHQLNLFDLNKAVLAELAELGGQISPSPKDAAANSELVITMLPAAAHVRSVYLNEDGVLAGIRPGTPTVDCSTIDPQTARDVSKAAAAKGVDMGDAPVSGGTGGAAAGTLTFMVGASTELFASLKPVLEQMGRNIVHCGEVGTGQIAKICNNLLLGISMIGVSEAMALGNALGIDTKVLAGIINSSTGRCWSSDTYNPWPGIIETAPASRGYTGGFGAELMLKDLGLATEAARQAHQPVILGAVAQQLYQAMSLRGEGGKDFSAIVEGYRKKDENLYFQGLEHHHHHH
modifications: MmsB from Pseudomonas putida KT2440 plus TEV protease recognition site and C-terminal His6-tag
B1: the “pH of highest activity” value in the series “pH dependence of MmsB” was 7.

B2: YdfG: NADP+-dependent 3-hydroxy acid dehydrogenase from E. coli, SEQ ID NO: 75 (protein)
chain: MIVLVTGATAGFGECITRRFIQQGHKVIATGRRQERLQELKDELGDNLYIAQLDVRNRAAIEEMLASLPAEWCNIDILVNNAGLALGMEPAHKASVEDWETMIDTNNKGLVYMTRAVLPGMVERNHGHIINIGSTAGSWPYAGGNVYGATKAFVRQFSLNLRTDLHGTAVRVTDIEPGLVGGTEFSNVRFKGDDGKAEKTYQNTVALTPEDVSEAVWWVSTLPAHVNINTLEMMPVTQSYAGLNVHRQENLYFQGLEHHHHHH
modifications: YdfG from Escherichia coli plus TEV protease recognition site and C-terminal His6-tag
For the molecule B2, in series [2], the “conversion of malonate semialdehyde to 3-HP” value is on record as “complete conversion”.
